Positions count from the first letter of the chain named. In names and notes the source's numbering stands.
How the values were obtained:
Assay in all cases: flow cytometry on cells
[1] = biological target: human CXCR4, endogenous on 293X cells (Homo sapiens, UniProt P61073)
human CXCR4 D182A = human CXCR4 D182A (Homo sapiens, UniProt P61073-1, D182A)
human CXCR4 L194W195A2 = human CXCR4 L194W195A2 (Homo sapiens, UniProt P61073, L194W195A2)
human CXCR4 N176VSE179A4 = human CXCR4 N176VSE179A4 (Homo sapiens, UniProt P61073, N176VSE179A4)
[2] = biological target: human CXCR4 D181DRYI185A5 (Homo sapiens, UniProt P61073, D181DRYI185A5)
human CXCR4 D181A = human CXCR4 D181A (Homo sapiens, UniProt P61073-1, D181A)
human CXCR4 P191A = human CXCR4 P191A (Homo sapiens, UniProt P61073-1, P191A)
human CXCR4 A180D = human CXCR4 A180D (Homo sapiens, UniProt P61073-1, A180D)
[3] = biological target: human CXCR4 (G-protein C-X-C chemokine receptor 4), expressed on CHO cells (Homo sapiens, UniProt P61073-1)
human CXCR4 A175D = human CXCR4 A175D (Homo sapiens, UniProt P61073-1, A175D)
human CXCR4 D187RFY190A4 = human CXCR4 D187RFY190A4 (Homo sapiens, UniProt P61073, D187RFY190A4)
human CXCR4 E179A = human CXCR4 E179A (Homo sapiens, UniProt P61073-1, E179A)

B1: MEDI3185 variant VH W52/Y52A/D53 to Ala (CDR2H) (antibody, V domains shown)
VH: QVQLVESGGGVVQPGRSLRLSCAASGFTFSNYVMHWVRQAPGKGLEWVAVIAAAGSNKYYADSVKGRFTISRDNSKNTLSLQMNSLRAEDTAVYYCERGEGYYGSGSRYRGYYYGMDVWGQGTTVTVSS
VL: DIQMTQSPSSLSASVGDRVTITCRASQGIRTDLGWYQQKPGKAPKRLIYAASSLQSGVPSRFSGSGSGTEFTLTISSLQPEDFATYYCLQHNSYPRTFGQGTKVEIK
binding result [1]: binds

B2: MEDI3185 variant VH N31A/Y32A/V33A (CDR1H) (antibody, V domains shown)
VH: B1 VH with N31A, Y32A, V33A, A52W, A53Y, A54D
VL: B1 VL
binding result [1]: binds

B3: MEDI3185 variant VL N92/S93/Y94 to Ala (CDR3L) (antibody, V domains shown)
VH: B1 VH with A52W, A53Y, A54D
VL: B1 VL with N92A, S93A, Y94A
binding result [1]: binds

B4: MEDI3185 variant VL P95 to Ala (CDR3L) (antibody, V domains shown)
VH: B1 VH with A52W, A53Y, A54D
VL: B1 VL with P95A
binding result [1]: binds

B5: MEDI3185 variant VH G54/S55/N56 to Ala (CDR2H) (antibody, V domains shown)
VH: B1 VH with A52W, A53Y, A54D, G55A, S56A, N57A
VL: B1 VL
binding result [1]: binds

B6: MEDI3185 (antibody, V domains shown)
VH: B1 VH with A52W, A53Y, A54D
VL: B1 VL
Kd (human CXCR4 D182A): 0.32 nM | Kd (human CXCR4 L194W195A2): 0.3 nM | Kd (human CXCR4 N176VSE179A4): 0.37 nM | Kd [2]: 0.28 nM | Kd (human CXCR4 D181A): 0.31 nM | Kd (human CXCR4 P191A): 0.36 nM | Kd (human CXCR4 A180D): 0.32 nM | Kd [3]: 0.32 nM | Kd (human CXCR4 A175D): 0.21 nM | Kd (human CXCR4 D187RFY190A4): 0.37 nM | Kd (human CXCR4 E179A): 0.25 nM

B7: MEDI3185 variant VL Q27A/G28A/I29A (CDR1L) (antibody, V domains shown)
VH: B1 VH with A52W, A53Y, A54D
VL: B1 VL with Q27A, G28A, I29A
binding result [1]: binds

B8: MEDI3185 variant VL A50/A51 to Gly, S52 to Ala (CDR2L) (antibody, V domains shown)
VH: B1 VH with A52W, A53Y, A54D
VL: B1 VL with A50G, A51G, S52A
binding result [1]: binds

Reference: paper PMC4966504 (mAbs, 2015)
